What was measured:
[1] = tested on: Acetyl-Prolyl-Arginyl-Asparaginyl-Lysyl-aminoacetamide coumarin (Ac-PRNK-ACC)
Ac-PANK-ACC [2] = tested on: Ac-PANK-ACC
Ac-PRNR-ACC [3] = tested on: Ac-PRNR-ACC
Ac-PRTK-ACC [4] = tested on: Ac-PRTK-ACC
Ac-PANK-ACC [5] = assay: single substrate kinetics, fluorogenic ACC release, Skin (β-I) Tryptase
Ac-PRNR-ACC [6] = assay: as above
Ac-PRTK-ACC [7] = assay: as above
[8] = tested on: Acetyl-Prolyl-Arginyl-Asparaginyl-Lysyl-aminoacetamide coumarin (Ac-PRNK-ACC); assay: as above
Ac-PANK-ACC [9] = assay: single substrate kinetics, fluorogenic ACC release, Lung (β-II) Tryptase
Ac-PRNR-ACC [10] = assay: as above
Ac-PRTK-ACC [11] = assay: as above
[12] = tested on: Acetyl-Prolyl-Arginyl-Asparaginyl-Lysyl-aminoacetamide coumarin (Ac-PRNK-ACC); assay: as above

Chain of recombinant human βI-tryptase (chain, as listed by the source): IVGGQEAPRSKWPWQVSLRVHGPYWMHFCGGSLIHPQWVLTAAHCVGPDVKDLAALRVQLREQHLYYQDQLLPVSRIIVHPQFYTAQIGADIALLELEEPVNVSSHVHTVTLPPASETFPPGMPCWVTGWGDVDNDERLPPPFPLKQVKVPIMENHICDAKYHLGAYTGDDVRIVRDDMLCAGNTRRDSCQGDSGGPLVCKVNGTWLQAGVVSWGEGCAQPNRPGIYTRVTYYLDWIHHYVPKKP

Substance	cleavage of the fluorogenic substrate (fluorescence, excitation 355 nm, emission 460 nm) [1]	kcat (Ac-PANK-ACC [2]) [s⁻¹]	kcat/km (s^-1M^-1) (Ac-PANK-ACC [2])	kcat (Ac-PRNR-ACC [3]) [s⁻¹]	kcat/km (s^-1M^-1) (Ac-PRNR-ACC [3])	kcat (Ac-PRTK-ACC [4]) [s⁻¹]	kcat/km (s^-1M^-1) (Ac-PRTK-ACC [4])	kcat [1] [s⁻¹]	kcat/km (s^-1M^-1) [1] [s^-1M^-1]	preference over Ac-PRTK-ACC (kcat/Km) [1]	Km (Ac-PANK-ACC [5]) [µM]	Km (Ac-PRNR-ACC [6]) [µM]	Km (Ac-PRTK-ACC [7]) [µM]	Km [8] [µM]	activity relative to Ac-PRNK-ACC (kcat/Km) (Ac-PRNR-ACC [3])	preference over Ac-PANK-ACC (kcat/Km) [1]	Km (Ac-PANK-ACC [9]) [µM]	Km (Ac-PRNR-ACC [10]) [µM]	Km (Ac-PRTK-ACC [11]) [µM]	Km [12] [µM]
Human alpha-thrombin (Haematologic Technologies, Inc.)	Ac-PRNK-ACC (SEQ. ID. NO: 12) is a specific substrate for tryptase in relation to other blood borne serine proteases																			
recombinant human βI-tryptase	Ac-PRNK-ACC (SEQ. ID. NO: 12) is a specific substrate for tryptase in relation to other blood borne serine proteases	19.1	140000	20.9	1.12e+06	18.3	780000	17.8	1.23e+06	A minimal preference, approximately 2-fold, for P2-asparagine over P2-threonine was seen for both enzymes	133	18.6	23.4	14.5						
recombinant human βII-tryptase		20.3	180000	21.8	1.31e+06	18.7	1.27e+06	16.8	1.89e+06	A minimal preference, approximately 2-fold, for P2-asparagine over P2-threonine was seen for both enzymes					about 70-90% of the activity of Ac-PRNK-ACC	an approximately 10-fold preference for Ac-PRNK-ACC (SEQ. ID. NO: 12) over Ac-PANK-ACC	110	16.5	14.7	8.9
